Measurements reported in PMC11341690.
Positions count from the first letter of the chain named.

T1: PglX WT (Salmonella D23580 (S. Typhimurium), UniProt A0A6C7IK61 1-1225)
T1 sequence: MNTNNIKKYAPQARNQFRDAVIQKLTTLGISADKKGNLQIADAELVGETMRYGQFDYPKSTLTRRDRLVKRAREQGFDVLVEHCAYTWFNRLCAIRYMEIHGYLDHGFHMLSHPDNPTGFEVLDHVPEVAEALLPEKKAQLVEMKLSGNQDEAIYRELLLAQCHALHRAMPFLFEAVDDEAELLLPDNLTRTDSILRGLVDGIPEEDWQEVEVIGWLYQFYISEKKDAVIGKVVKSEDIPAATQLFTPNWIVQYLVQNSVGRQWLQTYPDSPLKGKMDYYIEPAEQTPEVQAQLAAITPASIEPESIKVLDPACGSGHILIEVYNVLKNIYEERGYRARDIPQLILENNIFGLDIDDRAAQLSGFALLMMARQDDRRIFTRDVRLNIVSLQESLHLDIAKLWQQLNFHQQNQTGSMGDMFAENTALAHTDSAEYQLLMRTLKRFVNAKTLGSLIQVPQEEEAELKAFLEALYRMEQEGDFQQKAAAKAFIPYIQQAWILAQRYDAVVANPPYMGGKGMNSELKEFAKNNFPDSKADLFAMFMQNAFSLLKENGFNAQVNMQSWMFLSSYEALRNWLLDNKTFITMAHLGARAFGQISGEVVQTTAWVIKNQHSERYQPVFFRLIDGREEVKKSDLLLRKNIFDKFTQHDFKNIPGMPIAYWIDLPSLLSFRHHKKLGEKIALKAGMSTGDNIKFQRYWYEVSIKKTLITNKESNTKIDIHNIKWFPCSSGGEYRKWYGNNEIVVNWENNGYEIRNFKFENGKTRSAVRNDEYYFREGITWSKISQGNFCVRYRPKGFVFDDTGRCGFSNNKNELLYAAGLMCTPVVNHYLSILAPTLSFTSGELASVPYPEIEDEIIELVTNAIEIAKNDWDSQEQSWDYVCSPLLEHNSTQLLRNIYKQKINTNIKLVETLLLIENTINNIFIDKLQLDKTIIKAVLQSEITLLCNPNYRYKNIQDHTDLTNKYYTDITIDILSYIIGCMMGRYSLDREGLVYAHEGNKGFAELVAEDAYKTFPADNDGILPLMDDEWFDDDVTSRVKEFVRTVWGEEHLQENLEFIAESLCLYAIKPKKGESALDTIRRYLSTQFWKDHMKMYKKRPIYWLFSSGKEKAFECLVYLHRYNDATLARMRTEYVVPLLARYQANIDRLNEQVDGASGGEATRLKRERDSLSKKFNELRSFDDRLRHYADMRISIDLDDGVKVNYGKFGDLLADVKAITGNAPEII

T2: PglX NTD (Salmonella D23580 (S. Typhimurium), UniProt A0A6C7IK61 1-661)
T2 sequence: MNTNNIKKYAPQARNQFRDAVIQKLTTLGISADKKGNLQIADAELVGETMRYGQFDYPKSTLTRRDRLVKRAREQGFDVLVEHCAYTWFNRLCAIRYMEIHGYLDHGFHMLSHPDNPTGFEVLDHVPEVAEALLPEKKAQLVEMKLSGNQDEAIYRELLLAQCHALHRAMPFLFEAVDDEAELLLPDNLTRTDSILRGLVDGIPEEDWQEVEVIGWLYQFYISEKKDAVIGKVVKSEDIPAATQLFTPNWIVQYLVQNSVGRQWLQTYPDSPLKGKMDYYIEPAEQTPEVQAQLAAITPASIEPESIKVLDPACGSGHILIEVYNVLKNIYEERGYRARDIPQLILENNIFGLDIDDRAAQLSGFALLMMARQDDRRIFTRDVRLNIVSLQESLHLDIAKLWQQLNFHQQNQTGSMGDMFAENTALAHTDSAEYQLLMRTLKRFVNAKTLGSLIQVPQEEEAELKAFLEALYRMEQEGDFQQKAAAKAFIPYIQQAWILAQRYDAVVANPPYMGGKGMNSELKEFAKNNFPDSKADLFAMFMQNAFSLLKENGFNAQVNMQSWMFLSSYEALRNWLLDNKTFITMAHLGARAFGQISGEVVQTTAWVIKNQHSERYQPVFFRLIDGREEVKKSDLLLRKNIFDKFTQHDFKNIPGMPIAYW

B1: DNA 1 (TRB2180/TRB2181) (dsDNA)
DNA 1: GGTATCCGTTCGTCATAGGCTCAAAGCGTCTCCTGAGTCTCGGATCAGTACGAACTACCGGAACCAACACGACTGATCGTCTTCGGTGACCATTGCAACACTAGTATCTCGAGTGCCGTG
DNA 2: CACGGCACTCGAGATACTAGTGTTGCAATGGTCACCGAAGACGATCAGTCGTGTTGGTTCCGGTAGTTCGTACTGATCCGAGACTCAGGAGACGCTTTGAGCCTATGACGAACGGATACC
B2: DNA 2 (TRB2182/TRB2183) (dsDNA)
DNA 1: B1 DNA 1 with C73G, T74A, G75T, A76C, T77A, C78G
DNA 2: B1 DNA 2 with G43C, A44T, T45G, C46A, A47T, G48C
B3: DNA 3 (TRB2184/TRB2185) (dsDNA)
DNA 1: B1 DNA 1 with T74A, G75A, A76T, T77A
DNA 2: B1 DNA 2 with A44T, T45A, C46T, A47T
B4: DNA 4 (TRB2186/TRB2187) (dsDNA)
DNA 1: B1 DNA 1 with G43T, A44G, C46A, A47C, G48C, T74A, G75A, A76T, T77A
DNA 2: B1 DNA 2 with A44T, T45A, C46T, A47T, C73G, T74G, G75T, T77C, C78A

Tests used:
PglX-SAM:Ocr complex = target: T3, PglX-SAM:Ocr complex (Salmonella enterica, UniProt A0A6C7IK61); settings: PglX incubated with 1 mM SAM, then Ocr, before crystallisation; same methyltransferase pocket
T3 construct: gene STMMW_44401

PglX (PglX-SAM) = target: T4, PglX (PglX-SAM) (Salmonella enterica, UniProt A0A6C7IK61); settings: PglX incubated with 1 mM SAM before crystallisation; methyltransferase pocket between GSG and NPPY motifs; no DNA
T4 construct: gene STMMW_44401

[1] = target: PglX (Salmonella enterica serovar Typhimurium ST313 strain D23580 BREX methyltransferase), wild type (Salmonella enterica serovar Typhimurium ST313 strain D23580); assay: mass photometry; PglX proteins with equimolar Ocr; TwoMP (Refeyn); 1 uM for 1 h on ice in 10 mM Tris pH 7.9, 25 mM NaCl, 0.5 uM SAM, 0.5 uM MgCl2, then diluted to 5 nM
PglX WT [2] = target: T1, PglX WT; assay: mass photometry; 1:1 and 2:1 complexes; mass photometry (Refeyn); buffer, salt, pH and temperature not given in the material; settings: protein: recombinant; tags: untagged (His/SUMO tag removed by hSENP2); blunt
PglX NTD = target: T2, PglX NTD; assay: mass photometry; NTD peak may include free DNA; mass photometry (Refeyn); buffer, salt, pH and temperature not given in the material; settings: protein: recombinant; tags: untagged (His/SUMO tag removed by hSENP2); blunt
PglX WT [3] = target: T1, PglX WT; assay: mass photometry; 1:1, 2:1 and 3:1 complexes; mass photometry (Refeyn); buffer, salt, pH and temperature not given in the material; settings: protein: recombinant; tags: untagged (His/SUMO tag removed by hSENP2); blunt
PglX WT [4] = target: T1, PglX WT; assay: mass photometry; 1:1, 2:1 and 3:1 complexes; non-specific; mass photometry (Refeyn); buffer, salt, pH and temperature not given in the material; settings: protein: recombinant; tags: untagged (His/SUMO tag removed by hSENP2); blunt

| Molecule | binding result (PglX WT [2]) | binding result (PglX NTD) | also measured |
| --- | --- | --- | --- |
| C[S+](CC[C@H](N)C(=O)O)C[C@H]1O[C@@H](n2cnc3c(N)ncnc32)[C@H](O)[C@@H]1O (stereo partly drawn) [SAM, S-adenosyl-L-methionine] | – | – | X-ray crystal structure, 3.5 A (PglX-SAM:Ocr complex): visible in the PglX-SAM:Ocr structure is a bound SAM molecule; X-ray crystal structure, 3.5 A (PglX (PglX-SAM)): crystallographic structure of Salmonella PglX bound to S-adenosyl-L-methionine (SAM), a co-factor for methylation |
| Ocr from phage T7 (DNA mimic, anti-restriction and anti-BREX protein) (from UniProt P03775 1-117) (natural protein) | – | – | stoichiometry N (Ocr per PglX (1:2 PglX WT:Ocr)) [1]: 2; stoichiometry N (Ocr per PglX (2:2 PglX WT:Ocr)) [1]: 1 |
| B1 | binds | no binding | – |
| B2 | binds | no binding | – |
| B3 | – | no binding | binding result (PglX WT [3]): binds |
| B4 | – | no binding | binding result (PglX WT [4]): binds |
